Measured values published in US9457062B2, “Chaperonin 10-induced immunomodulation” (CBIO LIMITED, priority 2005, dated 2016).

T1: CD14 (Homo sapiens, UniProt P08571)
T1 construct: MonoMac 6 cells (a human monocytic cell line); endogenous in cells; host or cells: MonoMac 6
T1 sequence (P08571 20-345): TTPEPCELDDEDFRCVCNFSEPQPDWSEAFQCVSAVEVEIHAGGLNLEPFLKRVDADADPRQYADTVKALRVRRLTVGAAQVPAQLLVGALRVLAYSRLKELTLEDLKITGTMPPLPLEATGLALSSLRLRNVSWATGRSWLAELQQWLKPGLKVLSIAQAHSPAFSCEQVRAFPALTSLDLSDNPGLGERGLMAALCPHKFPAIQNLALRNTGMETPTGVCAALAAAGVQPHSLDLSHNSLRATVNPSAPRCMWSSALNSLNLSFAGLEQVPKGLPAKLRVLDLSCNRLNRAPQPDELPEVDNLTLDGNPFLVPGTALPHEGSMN


Columns and labels:
GM1 = assay: FRET with GM1 (lipid rafts) on MonoMac 6 cells; assay type: binding, human; settings: donor GM1
Protocol: (§1) Cell labeling for FRET. MonoMac 6 cells (a human monocytic cell line) were labeled with 100 μl of a mixture of donor conjugated antibody (Cy3) and acceptor conjugated antibody (Cy5). For labelling of Cpn10, an anti-Cpn10 rabbit polyclonal antibody was used. The cells were rinsed twice in PBS/0.02% BSA, prior to fixation with 4% formaldehyde for 15 min. The cells were fixed in order to prevent potential re-organisation of the proteins during the course of the experiment. Confocal imaging. Cells were imaged on a Carl Zeiss, Inc. LSM510 confocal microscope (with an Axiovert 200 fluorescent microscope) using a 1.4 NA 63× Zeiss objective. The images were analysed using LSM 2.5 image analysis software (Carl Zeiss, Inc.). Cy3 and Cy5 were detected using the appropriate filter sets. Using typical exposure times for image acquisition (less than 5 s), no fluorescence was observed from a Cy3-labelled specimen using the Cy5 filters, nor was Cy5 fluorescence detected using the Cy3 filter sets. FRET measurements. FRET is a non-invasive imaging technique used to determine molecular proximity. […]
In the present study, FRET was measured using a method as previously described (Kenworthy and Edidin (1998) Journal of Cell Biology 142: 69-84; Kenworthy and Edidin (1998) in Gelb, M. H. (Ed.) Methods in molecular Biology. Humana Press Inc, Totowa, N.J. pp 37-49). […]

CD14 = target: T1, CD14; assay: FRET with CD14 on MonoMac 6 cells; assay type: binding
Protocol: as §1, with “used. […]” for “used. The cells were rinsed twice in PBS/0.02% BSA, prior to fixation with 4% formaldehyde for 15 min.”, “measurements. […] In the present study,” for “measurements.”, “FRET was measured using” for “FRET is”, “a method as previously described (Kenworthy and […] (1998) Journal of Cell Biology 142: 69-84; Kenworthy and […] (1998) in Gelb, M. H. (Ed.) Methods in” for “a non-invasive imaging technique used to determine”, “molecular Biology. Humana Press Inc, Totowa, N.J. pp 37-49). Briefly, samples were labeled with donor and acceptor conjugated antibodies, and energy transfer was detected as an increase in donor fluorescence (dequenching) after complete photobleaching of the acceptor molecule.” for “molecular proximity.”

TLR4 = target: T2, TLR4 (Homo sapiens, UniProt O00206); assay: FRET with TLR4 on MonoMac 6 cells; assay type: binding
T2 construct: endogenous in cells; host or cells: freshly isolated human monocytes; human monocyte-derived DC
Protocol: as §1, with “used. […]” for “used. The cells were rinsed twice in PBS/0.02% BSA, prior to fixation with 4% formaldehyde for 15 min.”, “measurements. […] In the present study,” for “measurements.”, “FRET was measured using” for “FRET is”, “a method as previously described (Kenworthy and […] (1998) Journal of Cell Biology 142: 69-84; Kenworthy and […] (1998) in Gelb, M. H. (Ed.) Methods in” for “a non-invasive imaging technique used to determine”, “molecular Biology. Humana Press Inc, Totowa, N.J. pp 37-49). Briefly, samples were labeled with donor and acceptor conjugated antibodies, and energy transfer was detected as an increase in donor fluorescence (dequenching) after complete photobleaching of the acceptor molecule.” for “molecular proximity.”

Cpn10 promoter = Cpn10 promoter luciferase reporter (pCAT/LUC-CPN) in RAW264.7 cells; assay type: cell-based, mouse; settings: optimal agonist concentrations (FIG. 18H): IFNγ 1 ng/ml, IL-1β 1 ng/ml, TNF-α 100 ng/ml
Description: Reagents. Recombinant human Cpn10 was produced to GMP specifications by BresaGen Limited (Adelaide, Aus) essentially as described previously (Johnson, B. 2005. J. Biol Chem 280:4037-4047). […] For FACS analysis, a cysteine residue was engineered onto the C-terminus of Cpn10 and labeled with AlexFluor647 (Invitrogen) according to manufacturer's instructions. […] TLR ligands and cytokines included: E. coli LPS (strain 055:B5, Sigma), E. coli ultra-pure LPS (0111:B4 Sigma), S. aureus LTA, B. subtilis LTA, S. aureus PGN, B. subtilis PGN, zymosan cell wall from S. cerevisae, poly(I:C), imiquimod R837, CpG ODN 1826 and ODN2216, GpC ODN1826 control, (all from Invivogen, San Diego, Calif.), recombinant mouse IFNγ, (Chemicon), IL-1β (PeproTech), and recombinant human TNF-α (Invivogen). Antibodies. Rabbit polyclonal antibodies were raised against Cpn10 and affinity purified at CBio. […] After 24 h cells were harvested and cell viability assessed by trypan blue dye exclusion. […] Cells were washed, harvested in Cell Culture Lysis Reagent (CCLR, Promega) and firefly luciferase signal measured using the Luciferase Assay System (Promega) and the Wallac Victor 2 Multilabel Counter (Perkin-Elmer). […] Cells were assessed for viability, pooled per condition (n=4), pelleted by centrifugation and resuspended in CCLR.

T2 sequence (O00206 24-839): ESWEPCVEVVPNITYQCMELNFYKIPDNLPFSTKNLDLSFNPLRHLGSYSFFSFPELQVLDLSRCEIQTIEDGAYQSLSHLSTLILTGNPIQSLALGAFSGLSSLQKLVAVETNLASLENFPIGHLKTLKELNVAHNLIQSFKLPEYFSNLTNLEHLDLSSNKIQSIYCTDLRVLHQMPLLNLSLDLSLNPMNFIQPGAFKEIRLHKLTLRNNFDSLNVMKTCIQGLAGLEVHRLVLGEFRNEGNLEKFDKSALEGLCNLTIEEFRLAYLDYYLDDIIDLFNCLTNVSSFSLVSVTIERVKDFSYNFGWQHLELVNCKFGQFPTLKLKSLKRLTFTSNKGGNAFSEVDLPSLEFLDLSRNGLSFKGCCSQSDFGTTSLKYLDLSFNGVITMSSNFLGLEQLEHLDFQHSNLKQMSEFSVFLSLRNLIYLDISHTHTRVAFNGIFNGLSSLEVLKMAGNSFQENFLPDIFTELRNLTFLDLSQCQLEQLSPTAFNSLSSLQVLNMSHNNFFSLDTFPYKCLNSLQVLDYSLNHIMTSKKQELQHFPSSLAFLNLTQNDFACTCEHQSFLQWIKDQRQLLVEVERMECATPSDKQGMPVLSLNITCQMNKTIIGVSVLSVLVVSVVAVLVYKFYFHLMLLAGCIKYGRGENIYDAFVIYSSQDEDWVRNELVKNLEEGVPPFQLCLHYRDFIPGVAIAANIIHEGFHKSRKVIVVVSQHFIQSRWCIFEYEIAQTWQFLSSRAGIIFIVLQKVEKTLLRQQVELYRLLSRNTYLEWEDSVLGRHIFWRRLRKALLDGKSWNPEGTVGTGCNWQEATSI

E ± ΔE (%) energy transfer efficiency (CD14; MM6 cells stimulated with LPS) [%] | E ± ΔE (%) energy transfer efficiency (CD14; Unstimulated MM6 cells) [%] | E ± ΔE (%) energy transfer efficiency (TLR4; MM6 cells stimulated with LPS) [%] | E ± ΔE (%) energy transfer efficiency (TLR4; Unstimulated MM6 cells) [%] | Molecule | E ± ΔE (%) energy transfer efficiency (GM1; MM6 cells stimulated with LPS) [%] | E ± ΔE (%) energy transfer efficiency (GM1; Unstimulated MM6 cells) [%] | up-regulation of the Cpn10 promoter (Cpn10 promoter)
4 ± 2.0 | 6 ± 0.5 | 6 ± 1.0 | 5 ± 1.0 | Hsp60: chaperonin 60, protein folding partner of Cpn10 (protein) AKDVKFGADARALMLQGVDLLADAVAVTMGPKGRTVIIEQSWGSPKVTKDGVTVAKSIDLKDKYKNIGAKLVQDVANNTNEEAGDGTTTATVLARSIAKEGFEKISKGANPVEIRRGVMLAVDAVIAELKKQSKPVTTPEEIAQVATISANGDKEIGNIISDAMKKVGRKGVITVKDGKTLNDELEIIEGMKFDRGYISPYFINTSKGQKCEFQDAYVLLSEKKISSIQSIVPALEIANAHRKPLVIIAEDVDGEALSTLVLNRLKVGLQVVAVKAPGFGDNRKNQLKDMAIATGGAVFGEEGLTLNLEDVQPHDLGKVGEVIVTKDDAMLLKGKGDKAQIEKRIQEIIEQLDVTTSEYEKEKLNERLAKLSDGVAVLKVGGTSDVEVNEKKDRVTDALNATRAAVEEGIVLGGGCALLRCIPALDSLTPANEDQKIGIEIIKRTLKIPAMTIAKNAGVEGSLIVEKIMQSSSEVGYDAMAGDFVNMVEKGIIDPTKVVRTALLDAAGVASLLTTAEVVVTEIPKEEKDPGMGAMGGMGGGMGGGMF | 8 ± 2.0 | 6 ± 0.5 | –
– | – | – | – | IFNγ: recombinant mouse IFNγ (Chemicon), non-TLR agonist (protein, UniProt P01580 23-155, looked up) Interferon gamma: HGTVIESLESLNNYFNSSGIDVEEKSLFLDIWRNWQKDGDMKILQSQIISFYLRLFEVLKDNQAISNNISVIESHLITTFFSNSKAKKDAFMSIAKFEVNNPQVQRQAFNELIRVVHQLLPESSLRKRKRSRC | – | – | did not induce substantial up-regulation
